# Columns and labels:
# hFcγRIIa131H = assay: -
# hFcγRIIIa158V = assay: -; range printed as 0.20~0.28
# hFcγRI = assay: -; range printed as 0.12~0.28
substance,measurement,setting,value
IgG 1,Kd,hFcγRIIa131H,0.85 µM
same,Kd,hFcγRIIIa158V,0.2 µM
same,Kd,hFcγRI,0.00012 µM

# From patent US20170247463A1
